Data on six molecules can be found in patent publication US20180244762A1 (KODIAK SCIENCES, published 2018).

The term Kd denotes a measure of binding affinity in units of concentration. In general, koff refers to a measure of how fast the partners let go of each other. As usually defined, the kon is a measure of how fast the partners come together. A word on the t½: it is the time in which the quantity being followed falls by half. As a reminder, the IC50 is the point on the concentration scale where inhibition reaches its midpoint.

Sequences and labels used below:
B1: aflibercept (Fc fusion, UniProt P17948 129-230, looked up, not shown: a dimerising Fc or GST)
chain: SDTGRPFVEMYSEIPEIIHMTEGRELVIPCRVTSPNITVTLKKFPLDTLIPDGKRIIWDSRKGFIISNATYKEIGLLTCEATVNGHLYKTNYLTHRQTNTIIDVVLSPSHGIELSVGEKLVLNCTARTELNVGIDFNWEYPSSKHQHKKLVNRDLKTQSGSEMKKFLSTLTIDGVTRSDQGLYTCAASSGLMTKKNSTFVRVHEK
B6: rhVEGFA-165 (ligand, human, UniProt P15692-4 27-191, looked up)
chain: APMAEGGGQNHHEVVKFMDVYQRSYCHPIETLVDIFQEYPDEIEYIFKPSCVPLMRCGGCCNDEGLECVPTEESNITMQIMRIKPHQGQHIGEMSFLQHNKCECRPKKDRARQENPCGPCSERRKHLFVQDPQTCKCSCKNTDSRCKARQLELNERTCRCDKPRR
modifications: biotinylated in Example 34

Assay [1] addresses B6. As to the kind of experiment: cell-based or functional assay.
Assay [2] deals with T1, recombinant human PDGF-BB (human, UniProt P01127 82-190).
T1 construct: also called rhPDGF-BB; rhPDGFBB
T1 sequence (P01127 82-190): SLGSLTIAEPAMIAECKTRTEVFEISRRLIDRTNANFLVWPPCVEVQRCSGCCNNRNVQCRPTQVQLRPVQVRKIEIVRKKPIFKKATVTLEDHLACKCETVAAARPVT
As to the kind of experiment: SPR (Biacore T200, 25 C), binder captured by anti-human IgG, PDGF-BB as analyte, run A. The procedure:
(§1) Each PDGF/VEGF variant was captured to a level of approximately 150 RUs. The running and sample buffer for the PDGF analysis was HBS-EP+300mM NaCl (10 mM 4-(2-hydroxyethyl)-1-piperazineethanesulfonic acid (HEPES) pH 7.4, 300 mM NaCl, 3mM ethylenediaminetetraacetic acid (EDTA), 0.05% (v/v) Tween-20). […] The surface was then regenerated with a 30 second pulse of 3M MgCl₂, a 30 second pulse of an ionic regeneration buffer (0.46M KSCN, 1.83 M MgCl2, 0.92 M urea, and 1.83 M guanidine-HCI pH7.4, Andersson et al., Analytical Chemistry, 1999) and then equilibrated with a 30 second pulse of HBS-EP+ 300 mM NaCl running buffer.
(§2) All SPR assays were performed at 25° C. with a data collection rate of1Hz using a Biacore T200 instrument (GE Healthcare). The resulting PDGP and VEGP sensorgrams were double referenced using both a control surface and buffer injections. The rate constants were determined by fitting the data to a 1:1 Langmuir model with Biacore T200 evaluation software v2.0 and the equation […].
(In general: In SPR one partner is held on a chip, and binding of the other changes the refractive index at the surface.)

For assay [3], the target named is T1, recombinant human PDGF-BB. Put plainly: SPR (Biacore T200, 25 C), binder captured by anti-human IgG, PDGF-BB as analyte, run B. The procedure:
as §1, §2

Assay [4] concerns the target T1, recombinant human PDGF-BB. Put plainly: optical biosensor (Proteon XPR36 / Biacore 2000), binder amine-coupled, rhPDGF-BB injected, 25 C. The procedure:
(§3) Binding studies were performed at 25° C. and 37° C. using BioRad Proteon XPR36 and Biacore 2000 optical biosensors equipped with GLM (Proteon) and CM4 (Biacore) sensor chips and equilibrated with running buffer (10 m/M HEPES, 150 mM NaCl, 0.005% Teen-20, 0.2 mg/ml BSA).

The target in assay [5] is T1, recombinant human PDGF-BB. As to the kind of experiment: cell-based or functional assay.
In assay [6] the target is T1, recombinant human PDGF-BB. As to the kind of experiment: competitive ELISA: binder preincubated with 0.2 nM rhPDGF-BB, competitor immobilized PDGFR/Fc. In general terms: ELISA stands for enzyme-linked immunosorbent assay.
Assay [7] deals with T1, recombinant human PDGF-BB. As to the kind of experiment: SPR (Biacore T200, 25 C), binder captured by anti-human IgG, PDGF-BB as analyte, average +/- SD of the runs. The procedure:
as §1, §2

The target of assay [8] is T1, recombinant human PDGF-BB. As to the kind of experiment: SPR (Biacore T200, 25 C), binder captured by anti-human IgG, PDGF-BB as analyte, run C. The procedure: as §1, §2
Assay [9] addresses B1. As to the kind of experiment: optical biosensor (Proteon XPR36 / Biacore 2000), binder amine-coupled, rhVEGFA-165 injected, 25 C. The procedure: as §3
Binding of the coupled proteins to the ligands was determined by standard methodology.

As to B1, the “Inhibition of VEGF induced proliferation of HRMVECs, IC50” value in assay [1] amounted to 550 pM.

B2: TAF443 (PDGFRβ-GS10-anti-VEGF-A heavy chain (L443C)/anti-VEGF-A light chain) (other)
heavy: LVVTPPGPELVLNVSSTFVLTCSGSAPVVWERMSQEPPQEMAKAQDGTFSSVLTLTNLTGLDTGEYFCTHNDSRGLETDERKRLYIFVPDPTVGFLPNDAEELFIFLTEITEITIPCRVTDPQLVVTLHEKKGDVALPVPYDHQRGFSGIFEDRSYICKTTIGDREVDSDAYYVYRLQVSSINVSVNAVQTVVRQGENITLMCIVIGNEVVNFEWTYPRKESGRLVEPVTDFLLDMPYHIRSILHIPSAELEDSGTYTCNVTESVNDHQDEKAINITVVESGGGGGSGGGGSEVQLVESGGGLVQPGGSLRLSCAASGYDFTHYGMNWVRQAPGKGLEWVGWINTYTGEPTYAADFKRRFTFSLDTSKSTAYLQMNSLRAEDTAVYYCAKYPYYYGTSHWYFDVWGQGTLVTVSSASTKGPSVFPLAPSSKSTSGGTAALGCLVKDYFPEPVTVSWNSGALTSGVHTFPAVLQSSGLYSLSSVVTVPSSSLGTQTYICNVNHKPSNTKVDKKVEPKSCDKTHTCPPCPAPEAAGAPSVFLFPPKPKDTLMISRTPEVTCVVVDVSHEDPEVKFNWYVDGVEVHNAKTKPREEQYNSTYRVVSVLTVLHQDWLNGKEYKCKVSNKALPAPIEKTISKAKGQPREPQVYTLPPSREEMTKNQVSLTCLVKGFYPSDIAVEWESNGQPENNYKTTPPVLDSDGSFFLYSKLTVDKSRWQQGNVFSCSVMHEALHNHYTQKSLSCSPGK
light: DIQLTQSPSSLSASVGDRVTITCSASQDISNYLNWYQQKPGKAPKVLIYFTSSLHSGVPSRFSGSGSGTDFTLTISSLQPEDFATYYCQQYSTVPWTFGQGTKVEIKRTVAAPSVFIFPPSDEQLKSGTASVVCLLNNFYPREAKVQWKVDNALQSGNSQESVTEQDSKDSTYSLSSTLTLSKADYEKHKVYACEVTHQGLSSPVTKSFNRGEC
notes: also called OG1321; TAF-443C
As for B2, the dissociation constant Kd in [2] stood at 1.54 pM; in assay [3], 1.56 pM; in assay [4], 14 pM; in assay [7] it was 1.55 pM. The dissociation rate constant (koff) in [2] is 4.96e-05 s⁻¹; in assay [3], 8.76e-05 s⁻¹. Also, the association rate constant (kon) is 3.22e+07 M⁻¹ s⁻¹ in assay [2] and 5.62e+07 M⁻¹ s⁻¹ in [3]. Moreover, the t½ in assay [2] was determined as 3.89 h; in assay [3] it was 2.2 h. Besides, the “Inhibition of PDGF induced proliferation of HPVPs, IC50” value in assay [5] stood at 5000 pM. Besides, the IC50 in [6] is 46 pM.

B3: TAF443-6A250K (other)
heavy: LVVTPPGPELVLNVSSTFVLTCSGSAPVVWERMSQEPPQEMAKAQDGTFSSVLTLTNLTGLDTGEYFCTHNDSRGLETDERKRLYIFVPDPTVGFLPNDAEELFIFLTEITEITIPCRVTDPQLVVTLHEKKGDVALPVPYDHQRGFSGIFEDRSYICKTTIGDREVDSDAYYVYRLQVSSINVSVNAVQTVVRQGENITLMCIVIGNEVVNFEWTYPRKESGRLVEPVTDFLLDMPYHIRSILHIPSAELEDSGTYTCNVTESVNDHQDEKAINITVVESGGGGGSGGGGSEVQLVESGGGLVQPGGSLRLSCAASGYDFTHYGMNWVRQAPGKGLEWVGWINTYTGEPTYAADFKRRFTFSLDTSKSTAYLQMNSLRAEDTAVYYCAKYPYYYGTSHWYFDVWGQGTLVTVSSASTKGPSVFPLAPSSKSTSGGTAALGCLVKDYFPEPVTVSWNSGALTSGVHTFPAVLQSSGLYSLSSVVTVPSSSLGTQTYICNVNHKPSNTKVDKKVEPKSCDKTHTCPPCPAPEAAGAPSVFLFPPKPKDTLMISRTPEVTCVVVDVSHEDPEVKFNWYVDGVEVHNAKTKPREEQYNSTYRVVSVLTVLHQDWLNGKEYKCKVSNKALPAPIEKTISKAKGQPREPQVYTLPPSREEMTKNQVSLTCLVKGFYPSDIAVEWESNGQPENNYKTTPPVLDSDGSFFLYSKLTVDKSRWQQGNVFSCSVMHEALHNHYTQKSLSCSPGK
light: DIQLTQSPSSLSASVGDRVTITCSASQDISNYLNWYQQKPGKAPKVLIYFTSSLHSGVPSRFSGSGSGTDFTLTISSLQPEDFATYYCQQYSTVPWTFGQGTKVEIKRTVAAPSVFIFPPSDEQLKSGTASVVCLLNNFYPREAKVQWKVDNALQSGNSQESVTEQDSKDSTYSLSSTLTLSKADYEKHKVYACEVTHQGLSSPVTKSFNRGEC
modifications: polymer conjugate, label 6A250K; polymer and attachment site not described for this conjugate
notes: also called R3643-6A
In the case of B3, in assay [2], the Kd was determined as 1.25 pM, the koff was determined as 9.46e-05 s⁻¹, the kon is 7.6e+07 M⁻¹ s⁻¹ and the t½ came to 2.03 h. Moreover, in assay [3], the Kd was 1.04 pM, the koff was 5.85e-05 s⁻¹, the kon was found to be 5.62e+07 M⁻¹ s⁻¹ and the t½ was 3.29 h. Besides, in assay [8], the Kd was determined as 1.47 pM, the koff was found to be 5.13e-05 s⁻¹, the kon stood at 3.48e+07 M⁻¹ s⁻¹ and the t½ is 3.76 h. Moreover, the Kd in assay [7] is 1.3 pM.

B4: TAF (PDGFRβ-GS10-anti-VEGF-A heavy chain/anti-VEGF-A light chain) (other)
heavy: LVVTPPGPELVLNVSSTFVLTCSGSAPVVWERMSQEPPQEMAKAQDGTFSSVLTLTNLTGLDTGEYFCTHNDSRGLETDERKRLYIFVPDPTVGFLPNDAEELFIFLTEITEITIPCRVTDPQLVVTLHEKKGDVALPVPYDHQRGFSGIFEDRSYICKTTIGDREVDSDAYYVYRLQVSSINVSVNAVQTVVRQGENITLMCIVIGNEVVNFEWTYPRKESGRLVEPVTDFLLDMPYHIRSILHIPSAELEDSGTYTCNVTESVNDHQDEKAINITVVESGGGGGSGGGGSEVQLVESGGGLVQPGGSLRLSCAASGYDFTHYGMNWVRQAPGKGLEWVGWINTYTGEPTYAADFKRRFTFSLDTSKSTAYLQMNSLRAEDTAVYYCAKYPYYYGTSHWYFDVWGQGTLVTVSSASTKGPSVFPLAPSSKSTSGGTAALGCLVKDYFPEPVTVSWNSGALTSGVHTFPAVLQSSGLYSLSSVVTVPSSSLGTQTYICNVNHKPSNTKVDKKVEPKSCDKTHTCPPCPAPEAAGAPSVFLFPPKPKDTLMISRTPEVTCVVVDVSHEDPEVKFNWYVDGVEVHNAKTKPREEQYNSTYRVVSVLTVLHQDWLNGKEYKCKVSNKALPAPIEKTISKAKGQPREPQVYTLPPSREEMTKNQVSLTCLVKGFYPSDIAVEWESNGQPENNYKTTPPVLDSDGSFFLYSKLTVDKSRWQQGNVFSCSVMHEALHNHYTQKSLSLSPGK
light: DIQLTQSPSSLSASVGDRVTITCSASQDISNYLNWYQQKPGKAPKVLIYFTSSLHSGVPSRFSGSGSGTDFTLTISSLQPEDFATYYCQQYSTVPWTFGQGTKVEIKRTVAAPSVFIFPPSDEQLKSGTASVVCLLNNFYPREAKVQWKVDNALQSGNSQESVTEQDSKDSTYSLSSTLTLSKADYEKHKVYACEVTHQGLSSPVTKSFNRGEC
modifications: Glycosylated PDGFR segment. The molecule is a dimer of two fusion heavy chains and two light chains.
notes: PDGFR-beta trap fused to the N-terminus of an anti-VEGF-A IgG1 heavy chain; also called TAF-WT; TAFwt
For B4, in assay [2], the equilibrium dissociation constant (Kd) is 1.01 pM, the dissociation rate constant (koff) was determined as 8.01e-05 s⁻¹, the kon is 7.97e+07 M⁻¹ s⁻¹ and the t½ was determined as 2.4 h. In addition, in assay [3], the equilibrium dissociation constant (Kd) amounted to 1.15 pM, the off-rate constant (koff) was 9.19e-05 s⁻¹, the on-rate (kon) amounted to 8.01e+07 M⁻¹ s⁻¹ and the t½ worked out at 2.09 h. Also, in assay [8], the equilibrium dissociation constant (Kd) stood at 1.19 pM, the koff was found to be 0.000103 s⁻¹, the association rate constant (kon) was determined as 8.65e+07 M⁻¹ s⁻¹ and the t½ turned out to be 1.87 h. The dissociation constant Kd in [7] was 1.1 pM.

B5: TAF347 (PDGFRβ-GS10-anti-VEGF-A heavy chain (Q347C)/anti-VEGF-A light chain) (other)
heavy: LVVTPPGPELVLNVSSTFVLTCSGSAPVVWERMSQEPPQEMAKAQDGTFSSVLTLTNLTGLDTGEYFCTHNDSRGLETDERKRLYIFVPDPTVGFLPNDAEELFIFLTEITEITIPCRVTDPQLVVTLHEKKGDVALPVPYDHQRGFSGIFEDRSYICKTTIGDREVDSDAYYVYRLQVSSINVSVNAVQTVVRQGENITLMCIVIGNEVVNFEWTYPRKESGRLVEPVTDFLLDMPYHIRSILHIPSAELEDSGTYTCNVTESVNDHQDEKAINITVVESGGGGGSGGGGSEVQLVESGGGLVQPGGSLRLSCAASGYDFTHYGMNWVRQAPGKGLEWVGWINTYTGEPTYAADFKRRFTFSLDTSKSTAYLQMNSLRAEDTAVYYCAKYPYYYGTSHWYFDVWGQGTLVTVSSASTKGPSVFPLAPSSKSTSGGTAALGCLVKDYFPEPVTVSWNSGALTSGVHTFPAVLQSSGLYSLSSVVTVPSSSLGTQTYICNVNHKPSNTKVDKKVEPKSCDKTHTCPPCPAPEAAGAPSVFLFPPKPKDTLMISRTPEVTCVVVDVSHEDPEVKFNWYVDGVEVHNAKTKPREEQYNSTYRVVSVLTVLHQDWLNGKEYKCKVSNKALPAPIEKTISKAKGQPREPCVYTLPPSREEMTKNQVSLTCLVKGFYPSDIAVEWESNGQPENNYKTTPPVLDSDGSFFLYSKLTVDKSRWQQGNVFSCSVMHEALHNHYTQKSLSLSPGK
light: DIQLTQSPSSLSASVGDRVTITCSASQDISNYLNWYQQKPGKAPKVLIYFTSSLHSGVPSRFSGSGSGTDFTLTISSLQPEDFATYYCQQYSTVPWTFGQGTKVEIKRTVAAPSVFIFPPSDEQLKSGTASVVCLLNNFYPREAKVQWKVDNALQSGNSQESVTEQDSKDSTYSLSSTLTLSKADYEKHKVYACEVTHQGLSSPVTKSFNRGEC
notes: Same as TAF except for Q347C (EU numbering); also called TAF-347C
Consider B5, for which, in assay [2], the Kd was found to be 2.03 pM, the off-rate constant (koff) is 8.41e-05 s⁻¹, the kon stood at 4.15e+07 M⁻¹ s⁻¹ and the t½ was found to be 2.29 h. For the same molecule, in [3], the equilibrium dissociation constant (Kd) was 1.35 pM, the dissociation rate constant (koff) was determined as 7.87e-05 s⁻¹, the kon is 5.82e+07 M⁻¹ s⁻¹ and the t½ is 2.45 h. The Kd in assay [7] amounted to 1.7 pM.
In assay [9], B6 yielded a Kd of 1.56 pM.
